Reference: the RNAGym collection of RNA variant scans (doi:10.7554/elife.80360)

B1: HDV Ribozyme (parent)
chain: GGCCGGCAUGGUCCCAGCCUCCUCGCUGGCGCCGGCUGGGCAACAUUCCGAGGGGACCGUCCCCUCGGUAAUGGCGAAUGGGACCCA

Variants of: B1
Experiment: self-cleavage, relative activity (ratio to wild type); higher = more cleavage; co-transcriptional

For G50C U65C, which self-cleavage is on record?
The self-cleavage was 1.05.

Which self-cleavage does the source give for C49A G82U here?
The self-cleavage was 0.437.

For A51G G55C, which self-cleavage is on record?
The self-cleavage was 0.481.

For C49U C64G, which self-cleavage is on record?
The self-cleavage was 0.684.

With C49G C75U as the variant, how does the self-cleavage read?
The self-cleavage was 0.201.

For G50C G73A, which self-cleavage is on record?
The self-cleavage was 0.407.

With G52U U60A as the variant, how does the self-cleavage read?
Its self-cleavage is 1.05.

For G52U U60G, which self-cleavage is on record?
Its self-cleavage is 0.978.

With C49A G53U as the variant, how does the self-cleavage read?
The self-cleavage was 0.608.

With G52A G54A as the variant, how does the self-cleavage read?
Its self-cleavage is 0.9.

Which self-cleavage does the source give for G52A G54U here?
The self-cleavage was 0.815.

Which self-cleavage does the source give for C49G C66G here?
Its self-cleavage is 0.665.

For G53A A71G, which self-cleavage is on record?
Its self-cleavage is 0.941.

For A51G A83C, which self-cleavage is on record?
The self-cleavage was 0.199.

For C49A C66A, which self-cleavage is on record?
The self-cleavage was 0.786.

For A51G A77U, which self-cleavage is on record?
Its self-cleavage is 0.682.

For A51G A77C, which self-cleavage is on record?
The self-cleavage was 0.322.

With G50U G53C as the variant, how does the self-cleavage read?
Its self-cleavage is 0.437.

For G50U G53A, which self-cleavage is on record?
The self-cleavage was 0.971.

With G50A G55U as the variant, how does the self-cleavage read?
Its self-cleavage is 1.11.

For C48U U69A, which self-cleavage is on record?
Its self-cleavage is 1.04.

With C48U U69C as the variant, how does the self-cleavage read?
Its self-cleavage is 1.07.

With C49U G52U as the variant, how does the self-cleavage read?
The self-cleavage was 0.687.

With G50U C63U as the variant, how does the self-cleavage read?
The self-cleavage was 0.909.

Which self-cleavage does the source give for G50U C63G here?
The self-cleavage was 0.332.

For G52C C63A, which self-cleavage is on record?
The self-cleavage was 1.05.

Which self-cleavage does the source give for G52C C63U here?
Its self-cleavage is 0.919.

Which self-cleavage does the source give for A51U G81C here?
Its self-cleavage is 0.407.

Which self-cleavage does the source give for G50A G68C here?
Its self-cleavage is 0.631.

With G50A G68A as the variant, how does the self-cleavage read?
Its self-cleavage is 0.957.

For A51G G81C, which self-cleavage is on record?
Its self-cleavage is 0.266.

With A51U U79A as the variant, how does the self-cleavage read?
The self-cleavage was 1.09.

For A51U U79C, which self-cleavage is on record?
The self-cleavage was 0.49.

With A51C C63A as the variant, how does the self-cleavage read?
Its self-cleavage is 0.475.

Which self-cleavage does the source give for A51C C63G here?
The self-cleavage was 0.322.

With A51G C57A as the variant, how does the self-cleavage read?
Its self-cleavage is 0.877.

For A51C A87C, which self-cleavage is on record?
Its self-cleavage is 0.937.

With G50C G82C as the variant, how does the self-cleavage read?
The self-cleavage was 0.383.

With G50C G82A as the variant, how does the self-cleavage read?
Its self-cleavage is 0.364.

For G50C G82U, which self-cleavage is on record?
Its self-cleavage is 0.217.

Which self-cleavage does the source give for G50A G54U here?
Its self-cleavage is 0.852.

With G52C A87U as the variant, how does the self-cleavage read?
Its self-cleavage is 1.

With C49A C63U as the variant, how does the self-cleavage read?
The self-cleavage was 0.817.

For C49A C63G, which self-cleavage is on record?
The self-cleavage was 0.256.

For C49U C58G, which self-cleavage is on record?
Its self-cleavage is 1.01.

For C49U C58A, which self-cleavage is on record?
The self-cleavage was 1.02.

With C49U C85A as the variant, how does the self-cleavage read?
The self-cleavage was 1.17.

Which self-cleavage does the source give for G50U G67U here?
The self-cleavage was 1.02.

Which self-cleavage does the source give for C49A U69C here?
Its self-cleavage is 1.13.

Which self-cleavage does the source give for C49U G53U here?
The self-cleavage was 1.02.

With C49U G55A as the variant, how does the self-cleavage read?
Its self-cleavage is 0.866.

For G52A C84U, which self-cleavage is on record?
Its self-cleavage is 0.691.

Which self-cleavage does the source give for G52A C84G here?
Its self-cleavage is 0.764.

Which self-cleavage does the source give for G52C G54U here?
Its self-cleavage is 0.513.

Which self-cleavage does the source give for A51C G80C here?
The self-cleavage was 0.0437.

With C49U G81A as the variant, how does the self-cleavage read?
The self-cleavage was 0.378.

For C49U C86U, which self-cleavage is on record?
The self-cleavage was 0.882.

Which self-cleavage does the source give for C49U C86G here?
Its self-cleavage is 1.16.

Which self-cleavage does the source give for G50A C57A here?
Its self-cleavage is 0.972.

For G50A C57U, which self-cleavage is on record?
Its self-cleavage is 1.

Which self-cleavage does the source give for A51C G53C here?
Its self-cleavage is 0.196.

For A51C U72C, which self-cleavage is on record?
Its self-cleavage is 0.475.

With C48U U72A as the variant, how does the self-cleavage read?
Its self-cleavage is 0.855.

For C48U U72C, which self-cleavage is on record?
The self-cleavage was 0.554.

Which self-cleavage does the source give for G52C C61G here?
Its self-cleavage is 0.886.

For C49U A78C, which self-cleavage is on record?
The self-cleavage was 0.188.

Which self-cleavage does the source give for G50U G73A here?
The self-cleavage was 0.634.

Which self-cleavage does the source give for A51C C62G here?
Its self-cleavage is 0.151.

Which self-cleavage does the source give for C49A G76C here?
The self-cleavage was 1.22.

Which self-cleavage does the source give for C49G A78G here?
Its self-cleavage is 0.266.

Which self-cleavage does the source give for G52U G73A here?
Its self-cleavage is 0.546.

For C49G C64A, which self-cleavage is on record?
The self-cleavage was 0.375.

Which self-cleavage does the source give for C49G C64U here?
Its self-cleavage is 0.973.

With A51G G52A as the variant, how does the self-cleavage read?
Its self-cleavage is 1.

For C49U U69G, which self-cleavage is on record?
The self-cleavage was 1.16.

With C49U U69A as the variant, how does the self-cleavage read?
Its self-cleavage is 0.95.

With A51C C84G as the variant, how does the self-cleavage read?
The self-cleavage was 0.536.

For A51C C84U, which self-cleavage is on record?
The self-cleavage was 0.831.

Which self-cleavage does the source give for G50C A78G here?
The self-cleavage was 0.584.

With G50C A78C as the variant, how does the self-cleavage read?
Its self-cleavage is 0.188.

With G52U A71G as the variant, how does the self-cleavage read?
Its self-cleavage is 0.901.

Which self-cleavage does the source give for G50A C63U here?
Its self-cleavage is 1.13.

For C49A A78U, which self-cleavage is on record?
The self-cleavage was 0.248.

With C49A G67U as the variant, how does the self-cleavage read?
Its self-cleavage is 0.945.
